Consider three molecules from article PMC7216292, “A Multivalent ICAM-1 Binding Nanoparticle which Inhibits ICAM-1 and LFA-1 Interaction Represents a New Tool for the Investigation of Autoimmune-Mediated Dry Eye” (International Journal of Molecular Sciences, 2020).

In data set [1] the target is mouse ICAM-1 (endogenous) (mouse (endogenous in bEnd.3, NOD LGACs)) (UniProt P13597).
Data set [2] has the same target. This is another data set of the same source.
Data set [3] deals with the molecule itself. Description: dynamic light scattering; 25 µM in PBS, pH 7.4, heated from 10 °C to 37 °C; assembly of monomers into nanoparticles above Tt1.
Data set [4] concerns the target mouse ICAM-1 (endogenous) (mouse (endogenous in bEnd.3, NOD LGACs), UniProt P13597 28-537). Kind of data set: cell-based or functional assay.

mouse ICAM-1 (endogenous) (mouse (endogenous in bEnd.3, NOD LGACs)), sequence (P13597 28-537): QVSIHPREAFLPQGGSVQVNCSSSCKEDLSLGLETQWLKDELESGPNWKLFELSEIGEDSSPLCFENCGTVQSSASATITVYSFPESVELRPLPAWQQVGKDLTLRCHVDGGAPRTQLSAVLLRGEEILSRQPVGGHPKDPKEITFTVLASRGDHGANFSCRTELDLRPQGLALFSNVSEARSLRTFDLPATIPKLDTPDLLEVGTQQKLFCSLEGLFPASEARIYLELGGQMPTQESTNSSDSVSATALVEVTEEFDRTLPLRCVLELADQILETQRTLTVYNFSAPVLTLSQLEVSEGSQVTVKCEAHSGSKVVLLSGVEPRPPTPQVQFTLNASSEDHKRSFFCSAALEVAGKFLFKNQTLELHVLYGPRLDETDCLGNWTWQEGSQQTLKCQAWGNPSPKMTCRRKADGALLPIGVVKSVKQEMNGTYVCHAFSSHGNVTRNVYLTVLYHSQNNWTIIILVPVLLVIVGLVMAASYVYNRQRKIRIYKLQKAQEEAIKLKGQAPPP
mouse ICAM-1 (endogenous), sequence (P13597 28-537): as above

Regarding “lymphocyte function-associated antigen-1 (LFA-1) (from UniProt P24063 24-1162; P11835 24-771) (receptor)”, in data set [1], the adhesion of fluorescently labelled splenocytes to TNF-α-induced bEnd.3 cells in the presence of 100 µM SI (negative control), percent of the control without ELP, plate reader was determined as 76.2% and the splenocyte binding to TNF-α-induced bEnd.3 cells in the presence of 100 µM SI (negative control), percent of the control without ELP, flow cytometry was 86.9%. In data set [2], the proliferation of CFSE-labelled mouse CD4+ T-cells stimulated with MCC-loaded CH27 cells, in the presence of 100 µM SI (control), 5 days, percent of the untreated mixture stood at 91.2%.

B1: SI (diblock elastin-like polypeptide S48I48) (other)
chain: MGVPGSGVPGSGVPGSGVPGSGVPGSGVPGSGVPGSGVPGSGVPGSGVPGSGVPGSGVPGSGVPGSGVPGSGVPGSGVPGSGVPGSGVPGSGVPGSGVPGSGVPGSGVPGSGVPGSGVPGSGVPGSGVPGSGVPGSGVPGSGVPGSGVPGSGVPGSGVPGSGVPGSGVPGSGVPGSGVPGSGVPGSGVPGSGVPGSGVPGSGVPGSGVPGSGVPGSGVPGSGVPGSGVPGSGVPGSGVPGSGVPGIGVPGIGVPGIGVPGIGVPGIGVPGIGVPGIGVPGIGVPGIGVPGIGVPGIGVPGIGVPGIGVPGIGVPGIGVPGIGVPGIGVPGIGVPGIGVPGIGVPGIGVPGIGVPGIGVPGIGVPGIGVPGIGVPGIGVPGIGVPGIGVPGIGVPGIGVPGIGVPGIGVPGIGVPGIGVPGIGVPGIGVPGIGVPGIGVPGIGVPGIGVPGIGVPGIGVPGIGVPGIGVPGIGVPGIGVPGIGY
notes: N-terminal leader; also called parent SI; source: E. coli BLR(DE3), purified by ELP-mediated phase separation
As for B1, the binding result in data set [3] was “binds”.

B2: IBP-SI (ICAM-1 binding peptide fused to the diblock elastin-like polypeptide S48I48) (designed binder)
chain: MGFEGFSFLAFEDFVSSIGVPGSGVPGSGVPGSGVPGSGVPGSGVPGSGVPGSGVPGSGVPGSGVPGSGVPGSGVPGSGVPGSGVPGSGVPGSGVPGSGVPGSGVPGSGVPGSGVPGSGVPGSGVPGSGVPGSGVPGSGVPGSGVPGSGVPGSGVPGSGVPGSGVPGSGVPGSGVPGSGVPGSGVPGSGVPGSGVPGSGVPGSGVPGSGVPGSGVPGSGVPGSGVPGSGVPGSGVPGSGVPGSGVPGSGVPGSGVPGSGVPGIGVPGIGVPGIGVPGIGVPGIGVPGIGVPGIGVPGIGVPGIGVPGIGVPGIGVPGIGVPGIGVPGIGVPGIGVPGIGVPGIGVPGIGVPGIGVPGIGVPGIGVPGIGVPGIGVPGIGVPGIGVPGIGVPGIGVPGIGVPGIGVPGIGVPGIGVPGIGVPGIGVPGIGVPGIGVPGIGVPGIGVPGIGVPGIGVPGIGVPGIGVPGIGVPGIGVPGIGVPGIGVPGIGVPGIGVPGIGY
notes: N-terminal leader; residue between IBP and the ELP; Unlabelled form; also called IBI-SI; source: E. coli BLR(DE3), purified by ELP-mediated phase separation
For B2, in data set [4], the “IC50 of inhibition of adhesion of PMA-activated, CFSE-labelled mouse splenocytes (LFA-1) to TNF-α-induced bEnd.3 cells (ICAM-1), flow cytometry, IBP-SI 10-150 µM, 45 min, 37 °C” value worked out at 62.7 µM and the “IC50 of inhibition of adhesion of PMA-activated, CFSE-labelled mouse splenocytes (LFA-1) to TNF-α-induced bEnd.3 cells (ICAM-1), fluorescence plate reader, IBP-SI 10-150 µM, 45 min, 37 °C” value stood at 81.2 µM. In addition, the binding result in data set [3] was “binds”.
